Test [1] has as its target GST-DDX39B (residues 1-428) (human) (UniProt Q13838).
For test [2] the target is unchanged. This is another data set of the same source.

UniProt Q13838, sequence (Q13838 whole entry, the tested form may be a part): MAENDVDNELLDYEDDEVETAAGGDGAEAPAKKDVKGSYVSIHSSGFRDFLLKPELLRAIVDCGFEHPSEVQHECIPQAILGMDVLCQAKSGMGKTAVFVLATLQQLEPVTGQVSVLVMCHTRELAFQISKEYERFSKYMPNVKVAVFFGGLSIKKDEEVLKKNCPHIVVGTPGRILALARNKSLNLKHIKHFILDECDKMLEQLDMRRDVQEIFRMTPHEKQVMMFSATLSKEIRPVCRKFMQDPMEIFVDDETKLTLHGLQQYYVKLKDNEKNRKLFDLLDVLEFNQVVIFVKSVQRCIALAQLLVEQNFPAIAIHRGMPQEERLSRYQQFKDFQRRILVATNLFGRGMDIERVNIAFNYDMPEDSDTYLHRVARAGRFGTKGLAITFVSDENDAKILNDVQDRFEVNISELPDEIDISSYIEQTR

In turn, “TREX-2.1 complex (LENG8 residues 490-800/PCID2/DSS1) (from UniProt Q96PV6-2 490-800; Q5JVF3 1-399; P60896 1-70)” displayed an ATPase activity of DDX39B (NADH enzyme-coupled assay with poly(A) RNA), stimulation by TREX-2.1 in test [1] of 80 fold.
Substance “TREX-2.1-mut (LENG8 residues 490-800 with 563RLTCAP568 replaced by GGGG/PCID2/DSS1) (from UniProt Q96PV6-2 490-800; Q5JVF3 1-399; P60896 1-70) (complex)” returned an ATPase activity of DDX39B, stimulation by TREX-2.1-mut against wild-type TREX-2.1 (fold reduction) in test [2] of 4.

Source of the values: publication PMC12216326.
